Source: article PMC11289891, “Selection and characterization of a peptide-based complement modulator targeting C1 of the innate immune system†” (RSC Chemical Biology, 2024)
Positions of bridges follow the written chain, without caps; N, C: chain ends.

Target: T1, C1q (full-length; ligand binding and scaffolding part of the C1 complex) (human (endogenous in human serum), UniProt P02745 23-245; P02746 28-253; P02747 29-245)
T1 construct: complement C1q subunit A, human; complement C1q subunit B, human; complement C1q subunit C, human; In serum and in the bought C1 protein C1q stands in the C1 complex with the proteases C1r and C1s (C1r2s2); in the ELISAs it was detected with anti-C1q; also called gC1q (globular head domain of full-length C1q); source: endogenous, normal human serum (Complement Technology); purified C1 protein …
T1 sequence (P02745 23-245, chain 1 of 3): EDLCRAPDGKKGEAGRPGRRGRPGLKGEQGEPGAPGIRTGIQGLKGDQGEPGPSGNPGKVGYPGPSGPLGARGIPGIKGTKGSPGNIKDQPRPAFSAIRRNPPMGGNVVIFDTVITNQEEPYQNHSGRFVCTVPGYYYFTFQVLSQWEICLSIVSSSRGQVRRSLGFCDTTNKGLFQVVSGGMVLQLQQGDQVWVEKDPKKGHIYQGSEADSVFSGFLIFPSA
T1 sequence (P02746 28-253, chain 2 of 3): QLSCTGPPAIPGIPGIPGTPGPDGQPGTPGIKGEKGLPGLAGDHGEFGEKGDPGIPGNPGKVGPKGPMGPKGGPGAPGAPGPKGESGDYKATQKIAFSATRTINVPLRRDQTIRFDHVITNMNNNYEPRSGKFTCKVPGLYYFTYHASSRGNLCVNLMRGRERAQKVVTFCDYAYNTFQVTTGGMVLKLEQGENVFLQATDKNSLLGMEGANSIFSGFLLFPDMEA
T1 sequence (P02747 29-245, chain 3 of 3): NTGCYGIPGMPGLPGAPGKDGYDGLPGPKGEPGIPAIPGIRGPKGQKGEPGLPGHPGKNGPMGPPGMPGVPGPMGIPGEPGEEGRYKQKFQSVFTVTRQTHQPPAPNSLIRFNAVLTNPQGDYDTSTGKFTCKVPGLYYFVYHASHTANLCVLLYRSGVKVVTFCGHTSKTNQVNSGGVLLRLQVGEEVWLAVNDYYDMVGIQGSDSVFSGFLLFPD
Assay: ELISA; titration of purified cL3-Bt bound to streptavidin-coated plates, 1% normal human serum in RPMI, 37 °C 1 hour, C1q detected with rabbit anti-C1q
Conditions: one partner purified

EC50: ~6 µM
Binder: {CH2CO}-YTVTFYPDPFTLQFIACGS-{K(biotin)} (thioether N-17) [cyclic-L3, biotinylated (cL3-Bt)]
